Consider 23 molecules from US20240279281A1, “Peptide Inhibitors of Interleukin-23 Receptor” (Janssen Pharmaceutica NV, priority 2023, published 2024).

To fix the notation:
T1: interleukin-23 receptor (IL-23R), Q5VWK5
T1 chain: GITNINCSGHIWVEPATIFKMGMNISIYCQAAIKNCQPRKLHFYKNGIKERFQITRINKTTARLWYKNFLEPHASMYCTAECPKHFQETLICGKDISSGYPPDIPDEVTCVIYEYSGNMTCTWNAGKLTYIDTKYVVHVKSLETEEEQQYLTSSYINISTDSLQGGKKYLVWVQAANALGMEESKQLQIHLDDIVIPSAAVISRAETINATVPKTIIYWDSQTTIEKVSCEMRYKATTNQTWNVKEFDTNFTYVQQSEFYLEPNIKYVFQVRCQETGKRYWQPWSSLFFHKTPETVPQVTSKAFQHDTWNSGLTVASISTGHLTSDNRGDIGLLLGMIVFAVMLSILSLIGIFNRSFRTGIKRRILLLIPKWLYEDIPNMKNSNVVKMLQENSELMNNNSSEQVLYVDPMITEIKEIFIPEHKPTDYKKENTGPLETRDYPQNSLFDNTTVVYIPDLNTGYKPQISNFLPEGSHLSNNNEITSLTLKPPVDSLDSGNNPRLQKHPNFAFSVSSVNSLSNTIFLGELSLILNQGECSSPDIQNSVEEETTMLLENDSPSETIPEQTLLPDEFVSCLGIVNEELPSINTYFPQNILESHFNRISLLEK

B1: SEQ ID NO: 65 (peptide)
peptide: R[Pen]NT[Trp(7-(3-AcNH-Ph))]K(Ac)[Pen]Y[2Nal(6-OH)][Thp]EN[3Pal][Sar]
modifications: not fully specified (bridges); ends and bridges not checked
B2: SEQ ID NO: 63 (peptide)
peptide: [Pen]NT[Trp(7-(3-AcNH-Ph))]K(Ac)[Pen][5‑(4-(2-amino-2-carboxyethyl)phenoxy)‑N,N,N‑trimethylpentan‑1‑aminium][2Nal(6-OH)][Thp]EN[3Pal][Sar]
modifications: disulfide 1-6 (inferred); ends not checked
B3: SEQ ID NO: 7 (peptide)
peptide: R[Abu]NTWK(Ac)[αMeC][X10][2Nal(6-OH)][Thp]K(Ac)N[3Pal][Sar]
modifications: ends and bridges not checked
B4: SEQ ID NO: 57 (peptide)
peptide: R[Pen]NT[Trp(7-Me)]K(Ac)[Pen][AEF][2Nal(6-OH)][Thp]ENH[Sar]
modifications: disulfide 2-7 (inferred); ends not checked
B5: SEQ ID NO: 9 (peptide)
peptide: [Pen]NT[X1]K(Ac)[Pen][X10][2‑amino‑3‑(6-hydroxynaphthalen-2-yl)propanoic acid][Thp]EN[3Pal][Sar]
modifications: ends and bridges not checked
B6: SEQ ID NO: 6 (peptide)
peptide: R[Abu]NT[Trp(7-(3-AcNH-Ph))]K(Ac)[αMeC][AEF][2Nal(6-OH)][Thp]EN[3Pal][Sar]
modifications: ends and bridges not checked
B7: SEQ ID NO: 8 (peptide)
peptide: [dLys(Me3)]CNT[Trp(7-Me)]K(Ac)[αMeC][2‑amino‑3‑(4-(2-aminoethoxy)phenyl)propanoic acid][2‑amino‑3‑(6-hydroxynaphthalen-2-yl)propanoic acid][Thp]EN[3Pal][Sar]
modifications: ends and bridges not checked
B8: SEQ ID NO: 447 (peptide)
peptide: [Ahp][Pen]NT[Trp(7-Me)]K(Ac)[Pen][2‑amino‑3‑(4-(2-aminoethoxy)phenyl)propanoic acid][2‑amino‑3‑(6-hydroxynaphthalen-2-yl)propanoic acid][Thp]EN[3Pal][Sar]
modifications: disulfide 2-7 (inferred); ends not checked
B9: SEQ ID NO: 439 (peptide)
peptide: R[Pen]NT[Trp(7-Me)]K(Ac)[Pen][2‑amino‑3‑(4-(2-aminoethoxy)phenyl)propanoic acid][2‑amino‑3‑(5-carbamoylnaphthalen-2-yl)propanoic acid][Thp]EN[αMeF]
modifications: disulfide 2-7 (inferred); ends not checked
B10: SEQ ID NO: 441 (peptide)
peptide: R[Pen]NT[Trp(7-Me)]K(Ac)[Pen][2‑amino‑3‑(4-(2-aminoethoxy)phenyl)propanoic acid][2‑amino‑3‑(6-hydroxynaphthalen-2-yl)propanoic acid][Thp]EN[2‑amino‑3‑(5-carbamoylpyridin-3-yl)propanoic acid][Sar]
modifications: disulfide 2-7 (inferred); ends not checked
B11: SEQ ID NO: 53 (peptide)
peptide: R[Pen]NT[Trp(7-(3-AcNH-Ph))]K(Ac)[Pen][AEF][2Nal(6-OH)][Thp]EN[3Pal(5-Me)][Sar]
modifications: disulfide 2-7 (inferred); ends not checked
B12: SEQ ID NO: 64 (peptide)
peptide: R[Pen]NT[Trp(7-(3-AcNH-Ph))]K(Ac)[Pen][X3][2Nal(6-OH)][Thp]ENH[Sar]
modifications: disulfide 2-7 (inferred); ends not checked
B13: SEQ ID NO: 56 (peptide)
peptide: [Pen]NT[Trp(7-Me)]K(Ac)[Pen][X3][2Nal(6-OH)][Thp]EN[3Pal][Sar]
modifications: disulfide 1-6 (inferred); ends not checked
B14: SEQ ID NO: 437 (peptide)
peptide: R[Pen]NT[Trp(7-Me)]K(Ac)[Pen][2‑amino‑3‑(4-(2-aminoethoxy)phenyl)propanoic acid][2‑amino‑3‑(5-methoxynaphthalen-2-yl)propanoic acid][Thp]EN[αMeF]
modifications: disulfide 2-7 (inferred); ends not checked
B15: SEQ ID NO: 62 (peptide)
peptide: [Pen]NT[Trp(7-(3-AcNH-Ph))]K(Ac)[Pen][X3][2Nal(6-OH)][Thp][N‑methyl‑N‑acetyllysine]NH[Sar]
modifications: disulfide 1-6 (inferred); ends not checked
B16: SEQ ID NO: 430 (peptide)
peptide: R[Pen]QTWQ[Pen][2‑amino‑3‑(4-(2-aminoethoxy)phenyl)propanoic acid][2‑amino‑3‑(6-hydroxynaphthalen-2-yl)propanoic acid][Thp]EN[Thp]
modifications: not fully specified (bridges); ends and bridges not checked
B17: SEQ ID NO: 69 (peptide)
peptide: [Pen]NT[Trp(7-(3-AcNH-Ph))]K(Ac)[Pen][AEF][2Nal(6-OH)][Thp]EN[3Pal][Sar]
modifications: not fully specified (bridges); ends and bridges not checked
B18: SEQ ID NO: 77 (peptide)
peptide: R[Pen]NT[Trp(7-Me)]K(Ac)[Pen][X3][2Nal(6-OH)][Thp]EN[3Pal][Sar]
modifications: not fully specified (bridges); ends and bridges not checked
B19: SEQ ID NO: 67 (peptide)
peptide: [dLys(Me3)][Pen]NT[Trp(7-Me)]K(Ac)[Pen][5‑(4-(2-amino-2-carboxyethyl)phenoxy)‑N,N,N‑trimethylpentan‑1‑aminium][2Nal(6-OH)][Thp]EN[3Pal][Sar]
modifications: not fully specified (bridges); ends and bridges not checked
B20: SEQ ID NO: 58 (peptide)
peptide: R[Pen]NT[Trp(7-Me)]K(Ac)[Pen][5‑(4-(2-amino-2-carboxyethyl)phenoxy)‑N,N,N‑trimethylpentan‑1‑aminium][2Nal(6-OH)][Thp]K(Ac)N[3Pal][Sar]
modifications: disulfide 2-7 (inferred); ends not checked
B21: SEQ ID NO: 431 (peptide)
peptide: R[Pen]NT[Trp(7-Me)]K(Ac)[Pen][2‑amino‑3‑(4-(2-aminoethoxy)phenyl)propanoic acid][2‑amino‑3‑(6-(2-hydroxyphenyl)naphthalen-2-yl)propanoic acid][Thp]EN[Thp]
modifications: not fully specified (bridges); ends and bridges not checked
B22: SEQ ID NO: 445 (peptide)
peptide: R[Pen]NT[Trp(7-Me)]K(Ac)[Pen][2‑amino‑3‑(4-(2-aminoethoxy)phenyl)propanoic acid][2‑amino‑3‑(5-methylnaphthalen-2-yl)propanoic acid][Thp]EN[αMeF]
modifications: disulfide 2-7 (inferred); ends not checked
B23: SEQ ID NO: 74 (peptide)
peptide: R[Pen]NTWK(Ac)[Pen][AEF][2Nal(6-OH)][Thp]EN[3Pal][Sar]
modifications: not fully specified (bridges); ends and bridges not checked

Starred links: 1 amine or outer side, 2 acyl side, 3 side chain; linkers in the order of their positions; H or OH if unused. Positions of bridges follow the written chain, without caps; N, C: chain ends. Non-standard residues stand in square brackets, D forms with d. No end group written: not given here. X1 = 3‑(7-(3-acetamidophenyl)-1H-indol-3-yl)‑2‑aminopropanoic acid, CC(=O)Nc1cccc(-c2cccc3c(CC(N[*:1])C(=O)[*:2])c[nH]c23)c1; X3 = 4‑(2-(4-(2-amino-2-carboxyethyl)phenoxy)ethyl)‑4‑methylmorpholin‑4‑ium, C[N+]1(CCOc2ccc(CC(N[*:1])C(=O)[*:2])cc2)CCOCC1; X10 = 2‑amino‑3‑(4-(2-guanidinoethoxy)phenyl)propanoic acid, N=C(N)NCCOc1ccc(CC(N[*:1])C(=O)[*:2])cc1; Trp(7-(3-AcNH-Ph)) = CC(=O)Nc1cccc(-c2cccc3c(C[C@H](N)C(=O)O)c[nH]c23)c1; N‑methyl‑N‑acetyllysine = N-methyl-N-acetyllysine; 2Nal(6-OH) = N[C@@H](Cc1ccc2cc(O)ccc2c1)C(=O)O; Trp(7-Me) = Cc1cccc2c(C[C@H](N)C(=O)O)c[nH]c12; dLys(Me3) = C[N+](C)(C)CCCC[C@@H](N)C(=O)O; 3Pal(5-Me) = Cc1cncc(C[C@H](N)C(=O)O)c1; AEF = NCCOc1ccc(C[C@H](N)C(=O)O)cc1; αMeF = C[C@](N)(Cc1ccccc1)C(=O)O; 3Pal = N[C@@H](Cc1cccnc1)C(=O)O; Pen = CC(C)(S)[C@H](N)C(=O)O; αMeC = C[C@](N)(CS)C(=O)O; Thp = NC1(C(=O)O)CCOCC1; Abu = CC[C@H](N)C(=O)O; Ahp = NCCCCCCC(=O)O; Sar = CNCC(=O)O

The test addresses T1, interleukin-23 receptor (IL-23R), Q5VWK5. As to the kind of experiment: cell-based or functional assay.
B1 gave an IL23R Reporter Assay IC50 of less than 10 nM and a PBMC pSTAT3 IC50 of less than 1 nM.

In turn, B2 had an IL23R Reporter Assay IC50 of less than 10 nM and a PBMC pSTAT3 IC50 of less than 0.1 nM.

Molecule B3 came in with an IL23R Reporter Assay IC50 of less than 10 nM and a PBMC pSTAT3 IC50 of less than 0.1 nM.

Take B4: the PBMC pSTAT3 IC50 was less than 1 nM.

In the case of B5, the IL23R Reporter Assay IC50 was less than 10 nM and the PBMC pSTAT3 IC50 is greater than 1 nM.

For B6, the IL23R Reporter Assay IC50 was less than 10 nM and the PBMC pSTAT3 IC50 is less than 0.1 nM.

Regarding B7, the IL23R Reporter Assay IC50 is less than 10 nM and the PBMC pSTAT3 IC50 is less than 10 pM.

In turn, B8 had an IL23R Reporter Assay IC50 greater than 100 nM and a PBMC pSTAT3 IC50 of less than 1 nM.

For the molecule B9, the IL23R Reporter Assay IC50 is greater than 100 nM and the PBMC pSTAT3 IC50 was less than 1 nM.

For the molecule B10, the IL23R Reporter Assay IC50 is less than 10 nM and the PBMC pSTAT3 IC50 is less than 0.1 nM.

B11 yielded an IL23R Reporter Assay IC50 of less than 10 nM.

The molecule B12 registered a PBMC pSTAT3 IC50 of less than 1 nM.

As for B13, the IL23R Reporter Assay IC50 is less than 10 nM and the PBMC pSTAT3 IC50 is less than 10 pM.

In turn, B14 displayed an IL23R Reporter Assay IC50 greater than 100 nM and a PBMC pSTAT3 IC50 greater than 1 nM.

B15: the IL23R Reporter Assay IC50 is less than 10 nM and the PBMC pSTAT3 IC50 was less than 1 nM.

The molecule B16 came in with an IL23R Reporter Assay IC50 greater than 100 nM and a PBMC pSTAT3 IC50 greater than 1 nM.

In the case of B17, the IL23R Reporter Assay IC50 was less than 10 nM and the PBMC pSTAT3 IC50 is less than 10 pM.

In the case of B18, the IL23R Reporter Assay IC50 is less than 10 nM and the PBMC pSTAT3 IC50 was less than 10 pM.

For the molecule B19, the IL23R Reporter Assay IC50 is less than 10 nM and the PBMC pSTAT3 IC50 was less than 0.1 nM.

Turning to B20, the IL23R Reporter Assay IC50 was less than 10 nM and the PBMC pSTAT3 IC50 is less than 0.1 nM.

B21 had an IL23R Reporter Assay IC50 greater than 100 nM and a PBMC pSTAT3 IC50 greater than 1 nM.

Regarding B22, the IL23R Reporter Assay IC50 is greater than 100 nM and the PBMC pSTAT3 IC50 was greater than 1 nM.

Turning to B23, the IL23R Reporter Assay IC50 is less than 10 nM and the PBMC pSTAT3 IC50 is less than 0.1 nM.
